Reference: patent US10919943B2, “Mutant proteins enabling agrochemical control of plant gene expression” (The Regents of the University of California, priority 2016, dated 2021)
Substitutions are numbered along the chain they refer to. In names and notes the source's numbering stands.

Target: T1, PYR1 (Arabidopsis thaliana, UniProt O49686)
T1 construct: expressed in transfected cells; host or cells: S. cerevisiae strain Y190
T1 sequence (O49686 1-191): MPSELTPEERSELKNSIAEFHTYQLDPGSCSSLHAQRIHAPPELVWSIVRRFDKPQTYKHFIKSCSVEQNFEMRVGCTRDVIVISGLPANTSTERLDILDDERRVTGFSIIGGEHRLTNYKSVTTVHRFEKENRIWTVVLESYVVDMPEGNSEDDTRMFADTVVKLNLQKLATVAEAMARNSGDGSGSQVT
Assay: Yeast two hybrid of pACT-HAB1 site saturation mutants with pBD-PYR1 on 10 μM ABA, β-galactosidase staining
Assay type: cell-based
Set-up: key: x: Mutations in HAB1 that disrupt HAB1 interaction with PYR1
Settings: S. cerevisiae Y190, 10 μM ABA; dead = lack of detectable staining in comparison to wild type control
Source text: To systematically define mutations in HAB1 that disrupt its binding to PYR1, we used site saturation mutagenesis to create a collection all possible single amino acid substitutions in 20 residues lining the PYR1 binding interface, and then assayed the ability of each mutant to bind PYR1 using the yeast two hybrid assay described above. We targeted the following residues for mutagenesis: R199, 5200, E201, E203, H245, G246, G247, S322, E323, T324, K381, I383, Q384, W385, Q386, R389, F391, G392, V393, and Y404. To create the collection of mutations, mutagenic “NNK” site directed mutagenesis primers were synthesized for each of the 20 positions and the primers used in QuickChange site-directed mutagenesis reactions using a previously described pACT-HAB1 template (Park et al., 2009). We note that this clone uses a HAB1 cDNA lacking its three N-terminal amino acids. The reaction products were digested with DpnI, and transformed into competent Escherichia coli DH5α cells and plasmid DNA for 96 colonies per site was isolated using Bioneer AccuPrep® Plasmid Mini Extraction Kit (Alameda, Calif.) and sequenced to identify mutants. This process identified most of the 19 desired mutations per target site; the remaining mutations were constructed directly using specific mutagenic primers. To interrogate the effects of the mutations on PYR1-HAB1 interactions, the mutant clones were individually transformed into S. cerevisiae strain Y190 containing pBD-PYR1 (Park et al., 2009). Yeast transformants were selected for the presence of plasmids on selective SD (-Leu,-Trp) plates and then spotted onto SD (-Leu,-Trp) agar plates supplemented with 10 μM ABA. After incubating the test plates at 30° C. for two days, the colonies were lysed with chloroform and stained to reveal […] expression levels. “Dead” mutants were defined by lack of detectable staining in comparison to a wild type pBD-PYR1/pACT-HAB1 control. This screening effort defined 163 mutations that disrupt the ABA-induced PYR1/HAB1 interaction (Table 2).

B1: W385K: HAB1 mutant (protein, UniProt Q9CAJ0 23-511, looked up, variant W385K)
Protein phosphatase 2C 16: SPVEITQLKNVTDAADLLSDSENQSFCNGGTECTMEDVSELEEVGEQDLLKTLSDTRSGSSNVFDEDDVLSVVEDNSAVISEGLLVVDAGSELSLSNTAMEIDNGRVLATAIIVGESSIEQVPTAEVLIAGVNQDTNTSEVVIRLPDENSNHLVKGRSVYELDCIPLWGTVSIQGNRSEMEDAFAVSPHFLKLPIKMLMGDHEGMSPSLTHLTGHFFGVYDGHGGHKVADYCRDRLHFALAEEIERIKDELCKRNTGEGRQVQWDKVFTSCFLTVDGEIEGKIGRAVVGSSDKVLEAVASETVGSTAVVALVCSSHIVVSNCGDSRAVLFRGKEAMPLSVDHKPDREDEYARIENAGGKVIQKQGARVFGVLAMSRSIGDRYLKPYVIPEPEVTFMPRSREDECLILASDGLWDVMNNQEVCEIARRRILMWHKKNGAPPLAERGKGIDPACQAAADYLSMLALQKGSKDNISIIVIDLKAQRKFKTRT
Mutations in HAB1 that disrupt HAB1 interaction with PYR1: x

B2: R389H: HAB1 mutant (protein, UniProt Q9CAJ0 23-511, looked up, variant R389H)
Protein phosphatase 2C 16: B1 Protein phosphatase 2C 16 with K363W, R367H
Mutations in HAB1 that disrupt HAB1 interaction with PYR1: x

B3: R389Q: HAB1 mutant (protein, UniProt Q9CAJ0 23-511, looked up, variant R389Q)
Protein phosphatase 2C 16: B1 Protein phosphatase 2C 16 with K363W, R367Q
Mutations in HAB1 that disrupt HAB1 interaction with PYR1: x

B4: R389F: HAB1 mutant (protein, UniProt Q9CAJ0 23-511, looked up, variant R389F)
Protein phosphatase 2C 16: B1 Protein phosphatase 2C 16 with K363W, R367F
Mutations in HAB1 that disrupt HAB1 interaction with PYR1: x

B5: R389R: HAB1, x printed at the wild-type residue; see doubts (protein, UniProt Q9CAJ0 23-511, looked up)
Protein phosphatase 2C 16: B1 Protein phosphatase 2C 16 with K363W
Mutations in HAB1 that disrupt HAB1 interaction with PYR1: x

B6: R389P: HAB1 mutant (protein, UniProt Q9CAJ0 23-511, looked up, variant R389P)
Protein phosphatase 2C 16: B1 Protein phosphatase 2C 16 with K363W, R367P
Mutations in HAB1 that disrupt HAB1 interaction with PYR1: x

B7: G392L: HAB1 mutant (protein, UniProt Q9CAJ0 23-511, looked up, variant G392L)
Protein phosphatase 2C 16: B1 Protein phosphatase 2C 16 with K363W, G370L
Mutations in HAB1 that disrupt HAB1 interaction with PYR1: x

B8: R389A: HAB1 mutant (protein, UniProt Q9CAJ0 23-511, looked up, variant R389A)
Protein phosphatase 2C 16: B1 Protein phosphatase 2C 16 with K363W, R367A
Mutations in HAB1 that disrupt HAB1 interaction with PYR1: x

B9: G392R: HAB1 mutant (protein, UniProt Q9CAJ0 23-511, looked up, variant G392R)
Protein phosphatase 2C 16: B1 Protein phosphatase 2C 16 with K363W, G370R
Mutations in HAB1 that disrupt HAB1 interaction with PYR1: x

B10: R389E: HAB1 mutant (protein, UniProt Q9CAJ0 23-511, looked up, variant R389E)
Protein phosphatase 2C 16: B1 Protein phosphatase 2C 16 with K363W, R367E
Mutations in HAB1 that disrupt HAB1 interaction with PYR1: x

B11: F391D: HAB1 mutant (protein, UniProt Q9CAJ0 23-511, looked up, variant F391D)
Protein phosphatase 2C 16: B1 Protein phosphatase 2C 16 with K363W, F369D
Mutations in HAB1 that disrupt HAB1 interaction with PYR1: x

B12: R389G: HAB1 mutant (protein, UniProt Q9CAJ0 23-511, looked up, variant R389G)
Protein phosphatase 2C 16: B1 Protein phosphatase 2C 16 with K363W, R367G
Mutations in HAB1 that disrupt HAB1 interaction with PYR1: x

B13: R389I: HAB1 mutant (protein, UniProt Q9CAJ0 23-511, looked up, variant R389I)
Protein phosphatase 2C 16: B1 Protein phosphatase 2C 16 with K363W, R367I
Mutations in HAB1 that disrupt HAB1 interaction with PYR1: x

B14: R389T: HAB1 mutant (protein, UniProt Q9CAJ0 23-511, looked up, variant R389T)
Protein phosphatase 2C 16: B1 Protein phosphatase 2C 16 with K363W, R367T
Mutations in HAB1 that disrupt HAB1 interaction with PYR1: x

B15: R389W: HAB1 mutant (protein, UniProt Q9CAJ0 23-511, looked up, variant R389W)
Protein phosphatase 2C 16: B1 Protein phosphatase 2C 16 with K363W, R367W
Mutations in HAB1 that disrupt HAB1 interaction with PYR1: x

B16: R389D: HAB1 mutant (protein, UniProt Q9CAJ0 23-511, looked up, variant R389D)
Protein phosphatase 2C 16: B1 Protein phosphatase 2C 16 with K363W, R367D
Mutations in HAB1 that disrupt HAB1 interaction with PYR1: x

B17: R389V: HAB1 mutant (protein, UniProt Q9CAJ0 23-511, looked up, variant R389V)
Protein phosphatase 2C 16: B1 Protein phosphatase 2C 16 with K363W, R367V
Mutations in HAB1 that disrupt HAB1 interaction with PYR1: x

B18: R389K: HAB1 mutant (protein, UniProt Q9CAJ0 23-511, looked up, variant R389K)
Protein phosphatase 2C 16: B1 Protein phosphatase 2C 16 with K363W, R367K
Mutations in HAB1 that disrupt HAB1 interaction with PYR1: x

B19: G392N: HAB1 mutant (protein, UniProt Q9CAJ0 23-511, looked up, variant G392N)
Protein phosphatase 2C 16: B1 Protein phosphatase 2C 16 with K363W, G370N
Mutations in HAB1 that disrupt HAB1 interaction with PYR1: x

B20: G392M: HAB1 mutant (protein, UniProt Q9CAJ0 23-511, looked up, variant G392M)
Protein phosphatase 2C 16: B1 Protein phosphatase 2C 16 with K363W, G370M
Mutations in HAB1 that disrupt HAB1 interaction with PYR1: x

B21: R389Y: HAB1 mutant (protein, UniProt Q9CAJ0 23-511, looked up, variant R389Y)
Protein phosphatase 2C 16: B1 Protein phosphatase 2C 16 with K363W, R367Y
Mutations in HAB1 that disrupt HAB1 interaction with PYR1: x

B22: G392P: HAB1 mutant (protein, UniProt Q9CAJ0 23-511, looked up, variant G392P)
Protein phosphatase 2C 16: B1 Protein phosphatase 2C 16 with K363W, G370P
Mutations in HAB1 that disrupt HAB1 interaction with PYR1: x

B23: R389M: HAB1 mutant (protein, UniProt Q9CAJ0 23-511, looked up, variant R389M)
Protein phosphatase 2C 16: B1 Protein phosphatase 2C 16 with K363W, R367M
Mutations in HAB1 that disrupt HAB1 interaction with PYR1: x

B24: F391E: HAB1 mutant (protein, UniProt Q9CAJ0 23-511, looked up, variant F391E)
Protein phosphatase 2C 16: B1 Protein phosphatase 2C 16 with K363W, F369E
Mutations in HAB1 that disrupt HAB1 interaction with PYR1: x

B25: G392Q: HAB1 mutant (protein, UniProt Q9CAJ0 23-511, looked up, variant G392Q)
Protein phosphatase 2C 16: B1 Protein phosphatase 2C 16 with K363W, G370Q
Mutations in HAB1 that disrupt HAB1 interaction with PYR1: x

B26: R389C: HAB1 mutant (protein, UniProt Q9CAJ0 23-511, looked up, variant R389C)
Protein phosphatase 2C 16: B1 Protein phosphatase 2C 16 with K363W, R367C
Mutations in HAB1 that disrupt HAB1 interaction with PYR1: x

B27: G392A: HAB1 mutant (protein, UniProt Q9CAJ0 23-511, looked up, variant G392A)
Protein phosphatase 2C 16: B1 Protein phosphatase 2C 16 with K363W, G370A
Mutations in HAB1 that disrupt HAB1 interaction with PYR1: x

B28: F391P: HAB1 mutant (protein, UniProt Q9CAJ0 23-511, looked up, variant F391P)
Protein phosphatase 2C 16: B1 Protein phosphatase 2C 16 with K363W, F369P
Mutations in HAB1 that disrupt HAB1 interaction with PYR1: x

B29: R389L: HAB1 mutant (protein, UniProt Q9CAJ0 23-511, looked up, variant R389L)
Protein phosphatase 2C 16: B1 Protein phosphatase 2C 16 with K363W, R367L
Mutations in HAB1 that disrupt HAB1 interaction with PYR1: x
